Measured values from US10766960 (dated 2020).
Substitutions are numbered along the chain they refer to. Like-named read-outs stand apart in the source and are kept apart here.

Assays:
Assay in all cases: SPR
FcgRIIIa F [1] = biological target: T1, FcgRIIIa F (human, UniProt P08637)
FcgRIIIa F [2] = biological target: T1, FcgRIIIa F; remark: listed apart in the source
FcgRIIIa F [3] = biological target: T1, FcgRIIIa F; remark: listed apart in the source
FcgRIIb [4] = biological target: T2, FcgRIIb (human, UniProt P31994)
T2 chain: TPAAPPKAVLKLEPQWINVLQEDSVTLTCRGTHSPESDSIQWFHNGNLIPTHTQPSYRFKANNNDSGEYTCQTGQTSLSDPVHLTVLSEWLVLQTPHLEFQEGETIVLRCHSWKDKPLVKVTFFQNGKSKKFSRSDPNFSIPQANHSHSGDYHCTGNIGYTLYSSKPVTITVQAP

FcgRIIIa F [5] = biological target: T1, FcgRIIIa F; remark: listed apart in the source
FcgRIIIa F [6] = biological target: T1, FcgRIIIa F; remark: listed apart in the source
FcgRIIb [7] = biological target: T2, FcgRIIb
FcgRIIa R = biological target: T3, FcgRIIa R (human, UniProt P12318)
T3 chain: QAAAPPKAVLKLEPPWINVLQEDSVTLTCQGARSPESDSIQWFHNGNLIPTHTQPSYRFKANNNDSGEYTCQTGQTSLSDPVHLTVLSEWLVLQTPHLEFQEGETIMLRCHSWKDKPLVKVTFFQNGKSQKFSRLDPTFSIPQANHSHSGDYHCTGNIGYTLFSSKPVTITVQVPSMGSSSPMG

FcgRIIIa F [8] = biological target: T1, FcgRIIIa F; remark: listed apart in the source
FcgRIIa H = biological target: T4, FcgRIIa H (human, UniProt P12318)
T4 chain: T3 chain with R134H

FcgRIIIa V = FcgRIIIa V (human, UniProt P08637)
Sequence of FcgRIIIa V (P08637 17-208 F176V): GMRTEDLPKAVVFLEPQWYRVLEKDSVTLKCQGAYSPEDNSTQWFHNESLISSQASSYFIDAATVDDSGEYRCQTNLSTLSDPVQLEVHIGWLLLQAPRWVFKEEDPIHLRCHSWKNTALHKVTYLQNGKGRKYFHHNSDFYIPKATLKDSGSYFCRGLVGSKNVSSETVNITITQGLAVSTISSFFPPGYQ

FcgRIIb [9] = biological target: T2, FcgRIIb
FcgRIa = biological target: T5, FcgRIa (human, UniProt P12314)
T5 chain: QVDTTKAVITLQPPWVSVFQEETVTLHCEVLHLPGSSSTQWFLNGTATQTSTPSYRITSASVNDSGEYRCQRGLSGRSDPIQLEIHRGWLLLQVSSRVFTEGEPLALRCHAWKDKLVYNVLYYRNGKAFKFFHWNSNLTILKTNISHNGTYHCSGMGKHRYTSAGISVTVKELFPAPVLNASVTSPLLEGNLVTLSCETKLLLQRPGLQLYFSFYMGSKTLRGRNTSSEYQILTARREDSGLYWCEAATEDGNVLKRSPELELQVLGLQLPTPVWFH

FcgRIIIa F [10] = biological target: T1, FcgRIIIa F; remark: listed apart in the source

T1 sequence (P08637 17-208): as the sequence (P08637 17-208 F176V) above, with V160F counted along it

B1: GpH7-TA7/GpH7-TA58/GpL16-k0 (antibody)
chain 1: QVQLVQSGAEVKKPGASVTVSCKASGYTFTDYEMHWIRQPPGEGLEWIGAIDPKTGDTAYSESFQDRVTLTADKSTSTAYMELSSLTSEDTAVYYCTRFYSYTYWGQGTLVTVSSASTKGPSVFPLAPSSKSTSGGTAALGCLVKDYFPEPVTVSWNSGALTSGVHTFPAVLQSSGLYSLSSVVTVPSSSLGTQTYICNVNHKPSNTKVDKKVEPKSCDKTHTCPPCPAPEYLWGPSVFLFPPKPKDTLMISRTPEVTCVVVDVSHEDPEVKFNWYVDGVEVHNAKTKPREEQYNATYRVVSVLTVLHQDWLNGKEYKCKVSNKALPAPIEKTISKAKGQPREPQVYTLPPSRKELTKNQVSLTCLVKGFYPSDIAVEWESNGQPENNYKTTPPVLDSDGSFFLYSKLTVDKSRWQQGNVFSCSVMHEALHNRYTQKSLSLSP
chain 2: B1 chain 1 with Y232L, W234G, S237D, Y294W, A296S, A328L, I330E, K354D, R433H, K437E
chain 3: DIVMTQSPLSLPVTPGEPASISCQASESLVHSNRNTYLHWYLQKPGQSPQLLIYKVSNRFSGVPDRFSGSGSGTDFTLKISRVEAEDVGVYYCSQNTHVPPTFGQGTKVEIERTVAAPSVFIFPPSDEQLKSGTASVVCLLNNFYPREAKVQWKVDNALQSGNSQESVTEQDSKDSTYSLSSTLTLSKADYEKHKVYACEVTHQGLSSPVTKSFNRGEC
Which Kd (FcgRIIIa F [1]) does the source give for B1 here?
Its Kd is 3.3 nM.

B2: GpH7-TA22/GpH7-B78/GpL16-k0 (antibody)
chain 1: B1 chain 1 with S237D
chain 2: B1 chain 1 with Y232L, W234G, S237D, A296S, A328L, I330E, K354D, R433H, K437E
chain 3: B1 chain 3
With B2 as the binder, how does the Kd (FcgRIIIa F [2]) read?
The Kd was 1.3 nM.

B3: GpH7-TA40/GpH7-B78/GpL16-k0 (antibody)
chain 1: B1 chain 1 with K332G
chain 2: B1 chain 1 with Y232L, W234G, S237D, A296S, A328L, I330E, K354D, R433H, K437E
chain 3: B1 chain 3
With B3 as the binder, how does the Kd (FcgRIIIa F [3]) read?
Its Kd is 7.5 nM.

B4: GpH7-TA52/GpH7-B78/GpL16-k0 (antibody)
chain 1: B1 chain 1 with Y294W
chain 2: B1 chain 1 with Y232L, W234G, S237D, A296S, A328L, I330E, K354D, R433H, K437E
chain 3: B1 chain 3
Which Kd (FcgRIIIa F [1]) does the source give for B4 here?
Its Kd is 2.3 nM.

B5: GpH7-TA7/GpH7-B78/GpL16-k0 (antibody)
chain 1: B1 chain 1
chain 2: B1 chain 1 with Y232L, W234G, S237D, A296S, A328L, I330E, K354D, R433H, K437E
chain 3: B1 chain 3
What does the source list for B5?
Kd (FcgRIIIa F [2]): 4.1 nM; Kd (FcgRIIb [4]): 1100 nM; Kd (FcgRIIIa F [5]): 4.7 nM

B6: GpH7-TA7/GpH7-TA50/GpL16-k0 (antibody)
chain 1: B1 chain 1
chain 2: B1 chain 1 with Y232L, W234G, S237D, A296S, A328L, I330E, K332G, K354D, R433H, K437E
chain 3: B1 chain 3
For B6, which Kd (FcgRIIIa F [3]) is on record?
Its Kd is 3.4 nM.

B7: GpH7-A44/GpH7-B80/GpL16-k0 (antibody)
chain 1: B1 chain 1 with Y232L, W234G, A296S, I330E
chain 2: not shown
chain 3: B1 chain 3
Which Kd (FcgRIIIa F [6]) does the source give for B7 here?
Its Kd is 230 nM.

B8: H240-G1d/L73-k0 (antibody)
chain 1: not shown
chain 2: DIQMTQSPSSLSASVGDRVTITCRASQDIHKYIAWYQQKPGQAPRLLIQYTSTLQPGVPSRFSGSGSGTDYTFTISSLQPEDIATYYCLQYEQLRTFGGGTKVEIKRTVAAPSVFIFPPSDEQLKSGTASVVCLLNNFYPREAKVQWKVDNALQSGNSQESVTEQDSKDSTYSLSSTLTLSKADYEKHKVYACEVTHQGLSSPVTKSFNRGEC
What does the source list for B8?
Kd (FcgRIIb [7]): 6000 nM; Kd (FcgRIIa R): 880 nM; Kd (FcgRIIIa F [8]): 1400 nM; Kd (FcgRIIa H): 660 nM; Kd (FcgRIIIa V): 310 nM; Kd (FcgRIIb [9]): 6100 nM; Kd (FcgRIa): 0.23 nM

B9: H240-afucosyl_G1d/L73-k0 (antibody)
chain 1: not shown
chain 2: B8 chain 2
With B9 as the binder, how does the Kd (FcgRIIb [7]) read?
The Kd was 2600 nM.

And the Kd (FcgRIIIa F [10])?
The Kd was 79 nM.

What about the Kd (FcgRIIa R) of the same binder?
Its Kd is 490 nM.

What about the Kd (FcgRIIIa F [8]) of the same binder?
Its Kd is 78 nM.

What about the Kd (FcgRIIa H) of the same binder?
Its Kd is 780 nM.

What about the Kd (FcgRIIIa V) of the same binder?
The Kd was 6.9 nM.

What about the Kd (FcgRIa) of the same binder?
Its Kd is 0.43 nM.
